IntAct's records for PubMed 18278056

B1: Insulin receptor substrate 2 (Mus musculus), P81122 (parent)
chain: MASAPLPGPPASAGGDGPNLNNNNNNNNHSVRKCGYLRKQKHGHKRFFVLRGPGTGGDEASAAGGSPPQPPRLEYYESEKKWRSKAGAPKRVIALDCCLNINKRADAKHKYLIALYTKDEYFAVAAENEQEQEGWYRALTDLVSEGRSGEGGSGTTGGSCSASLPGVLGGSAGAAGCDDNYGLVTPATAVYREVWQVNLKPKGLGQSKNLTGVYRLCLSARTIGFVKLNCEQPSVTLQLMNIRRCGHSDSFFFIEVGRSAVTGPGELWMQADDSVVAQNIHETILEAMKALKELFEFRPRSKSQSSGSSATHPISVPGARRHHHLVNLPPSQTGLVRRSRTDSLAATPPAAKCTSCRVRTASEGDGGAAGGAGTAGGRPMSVAGSPLSPGPVRAPLSRSHTLSAGCGGRPSKVTLAPAGGALQHSRSMSMPVAHSPPAATSPGSLSSSSGHGSGSYPLPPGSHPHLPHPLHHPQGQRPSSGSASASGSPSDPGFMSLDEYGSSPGDLRAFSSHRSNTPESIAETPPARDGSGGELYGYMSMDRPLSHCGRPYRRVSGDGAQDLDRGLRKRTYSLTTPARQRQVPQPSSASLDEYTLMRATFSGSSGRLCPSFPASSPKVAYNPYPEDYGDIEIGSHKSSSSNLGADDGYMPMTPGAALRSGGPNSCKSDDYMPMSPTSVSAPKQILQPRLAAALPPSGAAVPAPPSGVGRTFPVNGGGYKASSPAESSPEDSGYMRMWCGSKLSMENPDPKLLPNGDYLNMSPSEAGTAGTPPDFSAALRGGSEGLKGIPGHCYSSLPRSYKAPCSCSGDNDQYVLMSSPVGRILEEERLEPQATPGAGTFGAAGGSHTQPHHSAVPSSMRPSAIGGRPEGFLGQRCRAVRPTRLSLEGLQTLPSMQEYPLPTEPKSPGEYINIDFGEAGTRLSPPAPPLLASAASSSSLLSASSPASSLGSGTPGTSSDSRQRSPLSDYMNLDFSSPKSPKPSTRSGDTVGSMDGLLSPEASSPYPPLPPRPSTSPSSLQQPLPPAPGDLYRLPPASAATSQGPTAGSSMSSEPGDNGDYTEMAFGVAATPPQPIVAPPKPEGARVASPTSGLKRLSLMDQVSGVEAFLQVSQPPDPHRGAKVIRADPQGGRRRHSSETFSSTTTVTPVSPSFAHNSKRHNSASVENVSLRKSSEGSSTLGGGDEPPTSPGQAQPLVAVPPVPQARPWNPGQPGALIGCPGGSSSPMRRETSVGFQNGLNYIAIDVRGEQGSLAQSQPQPGDKNSWSRTRSLGGLLGTVGGSGASGVCGGPGTGALPSASTYASIDFLSHHLKEATVVKE

Variants of: B1
Conditions: with INSR

Variant | effect of a mutation on the interaction
Y621A | disrupting interaction
Y624A | disrupting interaction
D627A | disrupting interaction
Y628F | disrupting interaction
G629A | disrupting interaction
I631A | disrupting interaction
I633A | disrupting interaction

Variants of: B1
Conditions: with igf1r_human IGF1R

Variant | effect of a mutation on the interaction
Y628F | disrupting interaction
